Source: paper PMC4429025, “Characterization of Mutants of Human Small Heat Shock Protein HspB1 Carrying Replacements in the N-Terminal Domain and Associated with Hereditary Motor Neuron Diseases” (PLoS ONE, 2015)

Columns and labels:
Assay in all cases: cross-linking; disulfide crosslinking: reduced proteins alone or mixed at 30 uM per monomer each, 1 h at 42°C, then dialysis against 50 mM Tris/HCl pH 7.4, 50 mM KCl, 1 mM MgCl2, 0.1 mM PMSF at 4, 15 or 37°C; non-reducing SDS PAGE
Settings in all cases: both partners purified
G34R mutant of HspB1 = target: T1, G34R mutant of HspB1 (human, UniProt P04792 1-205, G34R)
T1 construct: human HspB1 with the disease-associated replacement G34R, in pET23b (NdeI/XhoI); Mutation occurs in patients with distal hereditary motor neuropathy; source: E. coli BL21 (DE3) pLysS, purified (ammonium sulfate fractionation, HiTrap Q, Superdex 200)
T1 sequence (P04792 whole entry G34R): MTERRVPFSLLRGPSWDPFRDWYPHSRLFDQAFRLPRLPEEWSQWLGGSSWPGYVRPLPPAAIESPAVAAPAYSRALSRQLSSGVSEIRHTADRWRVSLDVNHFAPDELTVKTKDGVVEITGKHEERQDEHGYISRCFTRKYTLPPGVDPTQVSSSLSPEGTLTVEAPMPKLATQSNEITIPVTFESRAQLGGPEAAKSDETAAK

P39L mutant of HspB1 = target: T2, P39L mutant of HspB1 (human, UniProt P04792 1-205, P39L)
T2 construct: human HspB1 with the disease-associated replacement P39L, in pET23b (NdeI/XhoI); Mutation occurs in patients with type II Charcot-Marie-Tooth disease or dHMN; source: E. coli BL21 (DE3) pLysS, purified (ammonium sulfate fractionation, HiTrap Q, Superdex 200)
T2 sequence (P04792 whole entry P39L): as the sequence (P04792 whole entry G34R) above, with R34G, P39L counted along it

E41K mutant of HspB1 = target: T3, E41K mutant of HspB1 (human, UniProt P04792 1-205, E41K)
T3 construct: human HspB1 with the disease-associated replacement E41K, in pET23b (NdeI/XhoI); Mutation occurs in patients with distal hereditary motor neuropathy; source: E. coli BL21 (DE3) pLysS, purified (ammonium sulfate fractionation, HiTrap Q, Superdex 200)
T3 sequence (P04792 whole entry E41K): as the sequence (P04792 whole entry G34R) above, with R34G, E41K counted along it

[1] = target: T4, wild type HspB1 (human small heat shock protein HspB1) (human, UniProt P04792 1-205)
T4 construct: human small heat shock protein HspB1, wild type, cDNA in pET23b; also called WT HspB1; WT; source: E. coli BL21 (DE3) pLysS, purified (ammonium sulfate fractionation, HiTrap Q, Superdex 200)
T4 sequence (P04792 whole entry): as the sequence (P04792 whole entry G34R) above, with R34G counted along it

binding result (G34R mutant of HspB1): binds | binding result (P39L mutant of HspB1): binds | binding result (E41K mutant of HspB1): binds | binding result [1]: binds
B1: double mutant of HspB6 containing the substitutions C46S/E116C (natural protein, human, UniProt O14558 1-160, looked up)
chain: MEIPVPVQPSWLRRASAPLPGLSAPGRLFDQRFGEGLLEAELAALSPTTLAPYYLRAPSVALPVAQVPTDPGHFSVLLDVKHFSPEEIAVKVVGEHVEVHARHEERPDEHGFVARCFHRRYRLPPGVDPAAVTSALSPEGVLSIQAAPASAQAPPPAAAK
notes: HspB6 lacking the natural Cys of the N-terminal domain and with a single Cys at the position homologous to Cys137 of HspB1; also called Cys mutant of HspB6; Cys-mutant of HspB6; source: expressed and purified as described earlier [36]
